Measurements published in patent CN101273061A.

Columns and labels:
[1] = molecular target: 重组产生的C末端截短的RSV(A2毒株)F蛋白 (RSV(A2毒株)) (UniProt P03420)
[2] = molecular target: 重组产生的C末端截短的RSV(A2毒株)F蛋白 (RSV(A2毒株)) (UniProt P03420); experiment: SPR (BIAcore 3000); truncated F protein on CM5 chip at low density; off-rate at the instrument's detection limit, so an estimate

UniProt P03420, sequence (P03420 26-524): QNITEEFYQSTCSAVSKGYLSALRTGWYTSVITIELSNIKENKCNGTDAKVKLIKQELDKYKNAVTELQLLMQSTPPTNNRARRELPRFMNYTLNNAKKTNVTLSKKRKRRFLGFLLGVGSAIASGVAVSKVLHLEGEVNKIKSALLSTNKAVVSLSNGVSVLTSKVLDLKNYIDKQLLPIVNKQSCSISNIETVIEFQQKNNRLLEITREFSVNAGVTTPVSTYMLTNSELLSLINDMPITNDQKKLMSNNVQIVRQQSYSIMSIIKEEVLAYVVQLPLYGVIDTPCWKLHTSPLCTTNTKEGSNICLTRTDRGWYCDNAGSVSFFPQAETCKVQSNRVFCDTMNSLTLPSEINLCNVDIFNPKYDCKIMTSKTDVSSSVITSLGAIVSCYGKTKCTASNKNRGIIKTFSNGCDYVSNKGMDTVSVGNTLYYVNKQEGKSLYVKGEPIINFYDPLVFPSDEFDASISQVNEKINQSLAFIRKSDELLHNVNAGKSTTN

## A4B4L1FR-S28R(莫维珠单抗) (antibody)
[1]
  fold higher affinity than palivizumab: 70 fold
  fold higher association rate (kon) than palivizumab: 4 fold
[2]
  fold lower dissociation rate (koff) than palivizumab: 17 fold
